Experiment [1] deals with T1, Proleukin® (aldesleukin) (human, UniProt P60568 21-153, limits assumed).
T1 construct: Variant of human wt IL-2 with C145S (C125S on mature IL-2); also called IL-2 (Proleukin®); human IL-2 (Proleukin)
Kind of experiment: ELISA, coated Proleukin, mean of 3 experiments. (In general: In an ELISA, binding on a coated surface is turned into a signal by an enzyme label.)
Experimental: ELISA plates (Corning) were coated with human IL-2 (Proleukin) at 10 μg/mL in PBS overnight at 4° C. The plates were washed 6 times with PBST, then blocked in 1% BSA/PBST for 2 hours. After blocking and washing, the anti-human IL-2 antibodies were added on the plate in an 11-point dilution series in 1% BSA/PBST and incubated for 2 hours. […] The plates were then washed again and incubated with Streptavidin-Horseradish Peroxidase in 1% BSA/PBS for 45 minutes. After washing, the substrate (R&D Systems) was added into the plates and the enzymatic reaction was stopped after 3 minutes by adding Stop Solution. The plates were read by a microplate reader at 450 nm with a wavelength correction set to 540 nm.

Experiment [2] has as its target T1, Proleukin® (aldesleukin). Kind of experiment: ELISA, coated Proleukin, serially diluted supernatant.
Experiment [3] has as its target T1, Proleukin® (aldesleukin). Kind of experiment: ELISA, coated Proleukin, HEK293F supernatant 1:2.
Experiment [4] addresses T1, Proleukin® (aldesleukin). Kind of experiment: SET assay (solution equilibration titration, MSD).
Experimental: A 22 serial 2n dilution of the antigen was prepared in sample buffer. A constant concentration of the antibody was added. […] A volume of 60 μl of each antigen:antibody mix was distributed in duplicates to a 384-well polypropylene microtiter plate (PP MTP). Sample buffer served as negative control and a sample containing no antigen as positive control (Bₘₐₓ). The plate was sealed and incubated overnight (o/n) at room temperature (RT). A 384-well standard MSD array plate was coated o/n with 2 μg/ml of IL-2. After three times washing with washing buffer, the plate was blocked with 50 μl/well blocking buffer for 1 hour at RT. After washing, a volume of 30 μl/well of the antigen:antibody mix was transferred from the PP MTP to the coated MSD plate and incubated for 20 min at RT. After an additional wash step, 30 μl of detection antibody (diluted 1:2000) in sample buffer was added to each well and incubated for 30 min at RT. The MSD plate was washed and 35 μl/well of read buffer was added and incubated for 5 min. ECL signals were measured with the MSD SECTOR Imager 6000.

T1 sequence (P60568 other isoform, or with tags, fused parts or gaps limits assumed): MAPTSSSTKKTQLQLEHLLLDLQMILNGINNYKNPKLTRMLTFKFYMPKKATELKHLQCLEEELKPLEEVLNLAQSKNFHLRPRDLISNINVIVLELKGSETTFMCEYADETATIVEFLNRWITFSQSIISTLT

B1: 104341 (antibody, V domains shown)
VH: QVQLVQSGAEVKKPGSSVKVSCKASGYAFTNYLIEWVRQAPGQGLEWMGVINPGSGGTNYNEKFKGRVTITADKSTSTAYMELSSLRSEDTAVYYCARWRGDGYYAYFDVWGQGTTVTVSS
VL: AIRLTQSPSSFSASTGDRVTITCKASQSVDYDGDSYMNWYQQKPGKAPKLLIYAASNLESGVPSRFSGSGSGTDFTLTISSLQSEDFATYYCQQSNEDPYTFGGGTKVEIK
notes: VH1/VK1
For orientation: EC50 means the concentration giving half of the maximal effect. A lower EC50 goes with higher potency in that assay. B1: the EC50 in the experiment with Proleukin® (aldesleukin) [1] is 0.4 nM.

B2: 104345 (antibody, V domains shown)
VH: QVQLVESGGGVVQPGRSLRLSCAASGYTFSSYLIEWVRQAPGKGLEWVAVINPGSGGTNYADSVKGRFTISADKSKNTAYLQMNSLRAEDTAVYYCARWRGDGYYAYFDVWGQGTTVTVSS
VL: AIRLTQSPSSFSASTGDRVTITCKASQSVDYDGDSYMNWYQQKPGKAPKLLIYAASNLESGVPSRFSGSGSGTDFTLTISSLQSEDFATYYCQQSNEDPYTFGGGTKVEIK
notes: VH3s/VK1
Molecule B2 registered an EC50 with Proleukin® (aldesleukin) [1] of 2.9 nM.

B3: 104344 (antibody, V domains shown)
VH: QVQLVQSGAEVKKPGSSVKVSCKASGYAFTNYLIEWVRQAPGQGLEWMGVINPGSGGTNYNEKFKGRVTITADKSTSTAYMELSSLRSEDTAVYYCARWRGDGYYAYFDVWGQGTTVTVSS
VL: EIVLTQSPATLSVSPGERATLSCRASQSVSYDGDSYMNWYQQKPGQAPRLLIYAASNLASGIPARFSGSGSGTEFTLTISSLQSEDAAVYYCQQSNEDPYTFGGGTKVEIK
notes: VH1/VK3s
In turn, B3 came in with an EC50 in the experiment with Proleukin® (aldesleukin) [1] of 0.7 nM. Compared with the last molecule, the EC50 is about 4.1-fold lower.

B4: 108929 (antibody, human IgG1, kappa, N297A, V domains shown)
VH: EVQLVQSGAEVKKPGESLKISCKGSGYAFSNYLIEWVRQMPGKGLEWMGVINPGSGGTYYNEKFKGQVTISADKSISTAYLQWSSLKASDTAMYYCARWRGEGYYAYFDVWGQGTTVTVSS
VL: AIRLTQSPSSFSASTGDRVTITCKASQSVDYQGDSYMNWYQQKPGKAPKLLIYTASNLESGVPSRFSGSGSGTDFTLTISSLQSEDFATYYCQQSNEDPYTFGGGTKVEIKR
In the experiment with Proleukin® (aldesleukin) [1], B4 gave a concentration giving a half-maximal response (EC50) of 0.15 nM.

B5: 104350 (antibody, V domains shown)
VH: EVQLVQSGAEVKKPGESLKISCKGSGYAFTNYLIEWVRQMPGKGLEWMGVINPGSGGTNYNEKFKGQVTISADKSISTAYLQWSSLKASDTAMYYCARWRGDGYYAYFDVWGQGTTVTVSS
VL: EIVLTQSPATLSVSPGERATLSCRASQSVSYDGDSYMNWYQQKPGQAPRLLIYAASNLASGIPARFSGSGSGTEFTLTISSLQSEDAAVYYCQQSNEDPYTFGGGTKVEIK
notes: VH5/VK3s
In the experiment with Proleukin® (aldesleukin) [1], B5 had an EC50 of 0.8 nM.

B6: Antibody No: 12 (antibody, human IgG1, kappa, N297A, V domains shown)
VH: EVQLVQSGAEVKKPGESLKISCKGSGYAFTNYLIEWVRQMPGKGLEWMGVINPGSGGTYYNEKFKGQVTISADKSISTAYLQWSSLKASDTAMYYCARWRGEGYYAYFDVWGQGTTVTVSS
VL: AIRLTQSPSSFSASTGDRVTITCKASQSVDYQGDSYLNWYQQKPGKAPKLLIYAASNLESGVPSRFSGSGSGTDFTLTISSLQSEDFATYYCQQSNEDPYTFGGGTKVEIKR
notes: VH N58Y; VK M33L; also called 108924
Molecule B6 gave an EC50 with Proleukin® (aldesleukin) [2] of 0.25 nM. Moreover, the half-maximal effective concentration (EC50) with Proleukin® (aldesleukin) [1] came out at 0.11 nM. In the experiment with Proleukin® (aldesleukin) [3], the “ELISA value (Normal ELISA)” value is 20000 luminescence signal, the “ELISA value (wash 3x every hour for 4 HRS)” value stood at 17400 luminescence signal and the “ELISA value (wash 3x every hour for 12 HRS)” value is 5960 luminescence signal.

B7: Antibody No: 20 (antibody, human IgG1, kappa, N297A, V domains shown)
VH: EVQLVQSGAEVKKPGESLKISCKGSGYAFTNYLIEWVRQMPGKGLEWMGVINPGSGGTYYNEKFKGQVTISADKSISTAYLQWSSLKASDTAMYYCARWRGEGYYAYYDVWGQGTTVTVSS
VL: AIRLTQSPSSFSASTGDRVTITCKASQSVDYQGDSYLNWYQQKPGKAPKLLIYSASNLESGVPSRFSGSGSGTDFTLTISSLQSEDFATYYCQQSNEDPYTFGGGTKVEIKR
notes: VK M33L + A50S; also called 108928
B7 displayed a concentration for a half-maximal effect (EC50) with Proleukin® (aldesleukin) [2] of 0.27 nM. Also, in the experiment with Proleukin® (aldesleukin) [1], a half-maximal effect (EC50) was put at 0.71 nM. In the experiment with Proleukin® (aldesleukin) [3], the “ELISA value (Normal ELISA)” value is 11700 luminescence signal, the “ELISA value (wash 3x every hour for 4 HRS)” value was 11100 luminescence signal and the “ELISA value (wash 3x every hour for 12 HRS)” value was found to be 5200 luminescence signal.

B8: Antibody No: 13 (antibody, human IgG1, kappa, N297A, V domains shown)
VH: EVQLVQSGAEVKKPGESLKISCKGSGYAFTNYLIEWVRQMPGKGLEWMGVINPGSGGTYYNEKFKGQVTISADKSISTAYLQWSSLKASDTAMYYCARWRGEGYYAYFDVWGQGTTVTVSS
VL: AIRLTQSPSSFSASTGDRVTITCKASQSVDYQGDSYMNWYQQKPGKAPKLLIYSASNLESGVPSRFSGSGSGTDFTLTISSLQSEDFATYYCQQSNEDPYTFGGGTKVEIKR
notes: VH N58Y; VK A50S; also called 108925
For the molecule B8, the EC50 with Proleukin® (aldesleukin) [2] came out at 0.19 nM. For the same molecule, the EC50 in the experiment with Proleukin® (aldesleukin) [1] turned out to be 0.06 nM. For the same molecule, in the experiment with Proleukin® (aldesleukin) [3], the “ELISA value (Normal ELISA)” value was 14500 luminescence signal, the “ELISA value (wash 3x every hour for 4 HRS)” value was 14600 luminescence signal and the “ELISA value (wash 3x every hour for 12 HRS)” value amounted to 4520 luminescence signal.

B9: 104349_VH5D98E_VK2 (antibody, V domains shown)
VH: EVQLVQSGAEVKKPGESLKISCKGSGYAFTNYLIEWVRQMPGKGLEWMGVINPGSGGTNYNEKFKGQVTISADKSISTAYLQWSSLKASDTAMYYCARWRGEGYYAYFDVWGQGTTVTVSS
VL: DIVLTQSPLSLPVTLGQPASISCKASQSVDYDGDSYMNWYQQRPGQSPRLLIYAASNLESGVPDRFSGSGSGTDFTLKISRVEAEDVGVYYCQQSNEDPYTFGGGTKVEIK
notes: Human IgG1 Fc domain with the N297A point mutation
Broadly, the Kd is the equilibrium constant for the complex coming apart. High values mean weaker binding, low ones tighter binding. In turn, B9 gave a dissociation constant (Kd) in the experiment with Proleukin® (aldesleukin) [4] of 0.178 nM. This molecule gave an EC50 in the experiment with Proleukin® (aldesleukin) [1] of 0.56 nM.

B10: Antibody No: 15 (antibody, human IgG1, kappa, N297A, V domains shown)
VH: EVQLVQSGAEVKKPGESLKISCKGSGYAFTNYLIEWVRQMPGKGLEWMGVINPGSGGTYYNEKFKGQVTISADKSISTAYLQWSSLKASDTAMYYCARWRGEGYYAYFDVWGQGTTVTVSS
VL: AIRLTQSPSSFSASTGDRVTITCKASQSVDYQGDSYLNWYQQKPGKAPKLLIYSASNLESGVPSRFSGSGSGTDFTLTISSLQSEDFATYYCQQSNEDPYTFGGGTKVEIKR
notes: VH N58Y; VK M33L + A50S; also called 108926
Molecule B10 showed an EC50 in the experiment with Proleukin® (aldesleukin) [2] of 0.28 nM. This molecule also had an EC50 in the experiment with Proleukin® (aldesleukin) [1] of 0.05 nM. For the same molecule, in the experiment with Proleukin® (aldesleukin) [3], the “ELISA value (Normal ELISA)” value was found to be 11100 luminescence signal, the “ELISA value (wash 3x every hour for 4 HRS)” value is 10500 luminescence signal and the “ELISA value (wash 3x every hour for 12 HRS)” value was 3800 luminescence signal.

B11: 108930 (antibody, human IgG1, kappa, N297A, V domains shown)
VH: EVQLVQSGAEVKKPGESLKISCKGSGYAFSNYLIEWVRQMPGKGLEWMGVINPGSGGTYYNEKFKGQVTISADKSISTAYLQWSSLKASDTAMYYCARWRGEGYYAYFDVWGQGTTVTVSS
VL: AIRLTQSPSSFSASTGDRVTITCKASQSVDYQGDSYLNWYQQKPGKAPKLLIYSASNLESGVPSRFSGSGSGTDFTLTISSLQSEDFATYYCQQSNEDPYTFGGGTKVEIKR
B11 gave an EC50 with Proleukin® (aldesleukin) [1] of 0.06 nM.

B12: Antibody No: 8 (antibody, human IgG1, kappa, N297A, V domains shown)
VH: EVQLVQSGAEVKKPGESLKISCKGSGYAFTNYLIEWVRQMPGKGLEWMGVINPGSGGTNYNEKFKGQVTISADKSISTAYLQWSSLKASDTAMYYCARWRGEGYYAYYDVWGQGTTVTVSS
VL: AIRLTQSPSSFSASTGDRVTITCKASQSVDYQGDSYMNWYQQKPGKAPKLLIYSASNLESGVPSRFSGSGSGTDFTLTISSLQSEDFATYYCQQSNEDPYTFGGGTKVEIKR
notes: VK A50S; also called 108923
In the experiment with Proleukin® (aldesleukin) [2], B12 had an EC50 of 0.24 nM. Besides, the EC50 in the experiment with Proleukin® (aldesleukin) [1] amounted to 0.05 nM. In the experiment with Proleukin® (aldesleukin) [3], the “ELISA value (Normal ELISA)” value was found to be 9370 luminescence signal, the “ELISA value (wash 3x every hour for 4 HRS)” value was determined as 7310 luminescence signal and the “ELISA value (wash 3x every hour for 12 HRS)” value came out at 2530 luminescence signal.

B13: 104346 (antibody, V domains shown)
VH: QVQLVESGGGVVQPGRSLRLSCAASGYTFSSYLIEWVRQAPGKGLEWVAVINPGSGGTNYADSVKGRFTISADKSKNTAYLQMNSLRAEDTAVYYCARWRGDGYYAYFDVWGQGTTVTVSS
VL: DIVLTQSPLSLPVTLGQPASISCKASQSVDYDGDSYMNWYQQRPGQSPRLLIYAASNLESGVPDRFSGSGSGTDFTLKISRVEAEDVGVYYCQQSNEDPYTFGGGTKVEIK
notes: VH3s/VK2
With B13, the response in the experiment with Proleukin® (aldesleukin) [1] was half-maximal at 1.7 nM (EC50).

The record behind these values is patent US20210246200A1 (UNIVERSIT T Z RICH, published 2021).
